Experimental data as given in patent US20060252678A1.

Biological target: mouse LSR (lipolysis stimulated receptor) (mouse) (UniProt Q99KG5)
Experiment: cell-based or functional assay

Sequence of UniProt Q99KG5 (Q99KG5 36-594): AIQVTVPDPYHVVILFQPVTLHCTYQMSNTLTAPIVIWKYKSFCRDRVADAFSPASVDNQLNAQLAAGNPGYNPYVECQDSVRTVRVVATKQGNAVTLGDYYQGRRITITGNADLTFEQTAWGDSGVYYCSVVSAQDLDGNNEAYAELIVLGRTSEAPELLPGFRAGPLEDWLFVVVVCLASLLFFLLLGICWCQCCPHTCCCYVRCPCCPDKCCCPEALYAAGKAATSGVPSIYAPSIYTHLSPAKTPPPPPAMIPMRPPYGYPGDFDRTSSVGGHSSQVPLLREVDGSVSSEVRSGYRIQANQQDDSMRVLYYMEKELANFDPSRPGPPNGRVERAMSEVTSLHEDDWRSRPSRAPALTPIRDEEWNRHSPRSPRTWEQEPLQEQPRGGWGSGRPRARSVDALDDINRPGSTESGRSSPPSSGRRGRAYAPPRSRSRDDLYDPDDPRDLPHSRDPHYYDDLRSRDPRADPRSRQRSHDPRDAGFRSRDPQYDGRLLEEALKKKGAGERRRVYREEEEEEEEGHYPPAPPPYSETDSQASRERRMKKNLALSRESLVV

cell-associated 125I-leptin in BPRCL mouse liver cells after pre-incubation with increasing AdipoQ (AQ) or globular AdipoQ (AQ-GH): > 30%
Substance: 125I-mouse leptin (from UniProt P41160 22-167) (ligand)
